Measurements reported in publication PMC6934455, “Molecular Dynamics model of peptide-protein conjugation: case study of covalent complex between Sos1 peptide and N-terminal SH3 domain from Grb2” (Scientific Reports, 2019).
Like-named read-outs stand apart in the source and are kept apart here.

How the values were obtained:
[1] = target: Sos1-X′ peptide (Homo sapiens); assay: NMR
[2] = target: Sos1-X′ peptide (Homo sapiens); assay: NMR; remark: listed apart in the source

Kd [1]: 4.6 µM
Kd [2]: 4.9 µM
B1: Grb2 N-SH3 2-59, P62993 (protein)
chain: EAIAKYDFKATADDELSFKRGDILKVLNEESDQNWYKAELNGKDGFIPKNYIEMKPHP
